US20110195067A1

Biological target: FcγRIII (CD16) (human) (UniProt P08637)
Assay: cell-based or functional assay

Sequence of FcγRIII (CD16) (human) (P08637 17-254): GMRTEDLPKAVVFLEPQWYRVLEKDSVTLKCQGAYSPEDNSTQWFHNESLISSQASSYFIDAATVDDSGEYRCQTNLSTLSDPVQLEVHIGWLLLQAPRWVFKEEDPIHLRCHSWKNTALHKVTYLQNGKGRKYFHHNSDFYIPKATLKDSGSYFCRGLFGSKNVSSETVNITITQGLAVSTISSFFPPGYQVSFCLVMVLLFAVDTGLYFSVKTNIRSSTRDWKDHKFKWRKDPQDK

IFN-γ secretion from PBMC, immobilized 3G8 (10 µg/ml) + IL-2 [ng/mL]	TNF-α secretion from PBMC, immobilized 3G8 (10 µg/ml) + IL-2 [ng/mL]	proliferative response of PBMC ([methyl-3H] thymidine), IL-2 and immobilized anti-CD16 mAb [CPM]	proliferative response of PBMC ([methyl-3H] thymidine), immobilized anti-CD16 mAb alone [CPM]	IFN-γ secretion from PBMC, aggregated IgG (40 µg/ml) + IL-2 [ng/mL]	TNF-α secretion from PBMC, aggregated IgG (40 µg/ml) + IL-2 [ng/mL]	fold induction of PBMC proliferation over IL-2, 125 µg/mL of AIG [fold]	proliferative response of PBMC, 125 µg/mL of AIG and IL-2 [CPM]	Substance
9.85	3.32	15500	592					anti-CD16 mAb 3G8 (Caltag Laboratories) (antibody)
				13	2.46	16	17400	heat aggregated IgG
